Test results: US20230024461A1, “METHODS FOR DUAL DNA/PROTEIN TAGGING OF OPEN CHROMATIN” (Beth Israel Deaconess Medical Center, Inc., priority 2019, published 2023)

B1: Tn5-F: FLAG-tagged Tn5 transposase purified in-house, negative control probe; amino acid SEQ ID NO: 19 (protein)
chain: MITSALHRAADWAKSVFSSAALGDPRRTARLVNVAAQLAKYSGKSITISSEGSKAMQEGAYRFIRNPNVSAEAIRKAGAMQTVKLAQEFPELLAIEDTTSLSYRHQVAEELGKLGSIQDKSRGWWVHSVLLLEATTFRTVGLLHQEWWMRPDDPADADEKESGKWLAAAATSRLRMGSMMSNVIAVCDREADIHAYLQDKLAHNERFVVRSKHPRKDVESGLYLYDHLKNQPELGGYQISIPQKGVVDKRGKRKNRPARKASLSLRSGRITLKQGNITLNAVLAEEINPPKGETPLKWLLLTSEPVESLAQALRVIDIYTHRWRIEEFHKAWKTGAGAERQRMEEPDNLERMVSILSFVAVRLLQLRESFTPPQALRAQGLLKEAEHVESQSAETVLTPDECQLLGYLDKGKRKRKEKAGSLQWAYMAIARLGGFMDSKRTGIASWGALWEGWEALQSKLDGFLAAKDLMAQGIKIDYKDDDDK
modifications: FLAG tag
B2: TP5: Tn5 transposase-GSGAGA linker-APEX2 peroxidase fusion, C-terminal FLAG; amino acid SEQ ID NO: 31 (protein)
chain: MITSALHRAADWAKSVFSSAALGDPRRTARLVNVAAQLAKYSGKSITISSEGSKAMQEGAYRFIRNPNVSAEAIRKAGAMQTVKLAQEFPELLAIEDTTSLSYRHQVAEELGKLGSIQDKSRGWWVHSVLLLEATTFRTVGLLHQEWWMRPDDPADADEKESGKWLAAAATSRLRMGSMMSNVIAVCDREADIHAYLQDKLAHNERFVVRSKHPRKDVESGLYLYDHLKNQPELGGYQISIPQKGVVDKRGKRKNRPARKASLSLRSGRITLKQGNITLNAVLAEEINPPKGETPLKWLLLTSEPVESLAQALRVIDIYTHRWRIEEFHKAWKTGAGAERQRMEEPDNLERMVSILSFVAVRLLQLRESFTPPQALRAQGLLKEAEHVESQSAETVLTPDECQLLGYLDKGKRKRKEKAGSLQWAYMAIARLGGFMDSKRTGIASWGALWEGWEALQSKLDGFLAAKDLMAQGIKIGSGAGAGKSYPTVSADYQDAVEKAKKKLRGFIAEKRCAPLMLRLAFHSAGTFDKGTKTGGPFGTIKHPAELAHSANNGLDIAVRLLEPLKAEFPILSYADFYQLAGVVAVEVTGGPKVPFHPGREDKPEPPPEGRLPDPTKGSDHLRDVFGKAMGLTDQDIVALSGGHTIGAAHKERSGFEGPWTSNPLIFDNSYFTELLSGEKEGLLQLPSDKALLSDPVFRPLVDKYAADEDAFFADYAEAHQKLSELGFADADYKDDDDK
modifications: C-terminal FLAG

Assays:
HEK293T nuclei = test: iDAPT protein labeling, western blot of labeled nuclear lysates; type: biochemical, human; settings: extracted HEK293T nuclei
Experimental: (§1) DNA and protein tagging by iDAPT. All iDAPT proteomic labeling assays were performed as described below unless indicated otherwise. 2.5 μmol MEDS-A/B, 2 μmol enzyme, and 1 μmol hemin chloride per channel were incubated at room temperature for 1 hour. 1e7 cells per sample were washed (500×g, 5 minutes, 4° C.), lysed and triturated in 100 μL LB1 (10 mM Tris-HCl pH 7.5, 10 mM NaCl, 3 mM MgCl2, 1% BSA, 0.01% digitonin, 0.1% Tween-20, 0.1% NP-40, and 1× cOmplete EDTA-free protease inhibitor cocktail [Roche]) for 3 minutes, and subsequently supplemented with an additional 1 mL of LB2 (10 mM Tris-HCl pH 7.5, 10 mM NaCl, 3 mM MgCl2, 1% BSA, 0.1% Tween-20, and 1× protease inhibitor). Nuclei were pelleted (500×g, 10 minutes, 4° C.), resuspended with tagmentation reaction mixture (20% dimethylformamide, 10 mM MgCl2, 20 mM Tris-HCl pH 7.5, 33% 1×PBS, 1% BSA, 0.01% digitonin, 0.1% Tween-20, 500 μM biotin-phenol, 1× protease inhibitor, and 2 pmol enzyme equivalent of enzyme:DNA:heme complex in a total volume of 500 μL), and incubated at 37° C. for 30 minutes with agitation on a thermomixer (1,000 rpm). 5 μL of tagmentation mix was saved for quality assessment as described above for ATAC-seq/iDAPT-seq sample preparation. The remaining nuclear suspension was then washed 2× with 1×PBS supplemented with 500 μM biotin-phenol, 1% BSA, 0.1% Tween-20, and 1× protease inhibitor (3000×g, 5 minutes, 4° C.) and labeled with 1 mM hydrogen peroxide and 500 μM biotin-phenol for 1 minute in 1×PBS with 1× protease inhibitor in a volume of 500 μL. Peroxidation reactions were quenched with 500 μL 2× quenching buffer (10 mM Trolox, 20 mM sodium ascorbate, 20 mM NaN3, and 1× protease inhibitor in 1×PBS). Labeled nuclei were then pelleted, washed with 1× quenching buffer, resuspended in 500 μL RIPA containing protease inhibitors, and frozen at −80° C. Lysates were thawed on ice, sonicated via a Sonic Dismembrator 100 (Fisher Scientific, setting 3, 15 seconds, 4 pulses), and incubated on ice for 30 minutes after the addition of 1 μL benzonase (EMD Millipore). Lysates were clarified by centrifugation (15,000×g, 20 minutes, 4° C.), quantified via the detergent-compatible Bradford assay (Thermo Fisher Scientific), and subjected to either Western blotting or quantitative mass spectrometry analyses as described below. For NB4 cell analysis, an additional endogenous peroxidase blocking step was added after nuclear extraction and before tagmentation: nuclei were resuspended in 500 μL 1×PBS containing 1% BSA, 0.03% hydrogen peroxide, and 0.1% NaN3 and incubated on ice for 30 minutes. Nuclei were pelleted and washed 4× with 1×PBS/1% BSA (3000×g, 5 minutes, 4° C.). Residual hydrogen peroxide was monitored by colorimetric assessment of supernatant via Quantofix peroxides test stick (Sigma).
(§2) Western blotting analysis. Whole cell or nuclear lysates were generated by resuspending cells or nuclei in RIPA (Boston BioProducts) supplemented with 1× cOmplete EDTA-free protease inhibitor cocktail (Roche). […] Lysates were clarified by centrifugation (15,000×g, 20 minutes, 4° C.) and their concentrations quantified via the detergent-compatible Bradford assay (Thermo Fisher Scientific). […] Membranes were blocked with 3% milk in PBS-T and incubated overnight with primary antibody and subsequently with secondary antibody after brief washing with PBS-T. Chemiluminescence was determined by applying ECL Western Blotting detection reagent (GE Healthcare) to membranes and imaging on an Amersham Imager 600 (GE Healthcare). […]

HT1080 cells = test: Co-immunofluorescence/ATAC-see analysis; type: cell-based, human
Experimental: Co-immunofluorescence/ATAC-see analysis. ATAC-see was performed similarly as previously described with slight modifications (Chen et al., Nat. Methods 13:1013-1020, 2016). Enzyme and transposon DNA were mixed at a 1:1.25 enzyme:MEDS-A/B-AF647 molar ratio and incubated at room temperature for 1 hour. Adherent cells were grown on glass coverslips (Fisher Scientific, 12-540A) until 80-90% confluent, washed with 1×PBS, fixed with 1% formaldehyde (Electron Microscopy Services) in 1×PBS for 10 minutes, and washed twice with ice-cold 1×PBS. Suspension cells were washed and resuspended with 1×PBS. 50,000 cells were added to poly-lysine slides and incubated at room temperature for 1 hour in a humidified chamber. An equal volume of 2% formaldehyde was added and incubated for 10 minutes, whereupon slides were washed twice with ice-cold 1×PBS. Immobilized cells were lysed by incubation with LB1 for 3 minutes followed by LB2 for 10 minutes at room temperature. Cells were then subject to tagmentation (20% dimethylformamide, 10 mM MgCl2, 20 mM Tris-HCl pH 7.5, 33% 1×PBS, 0.01% digitonin, 0.1% Tween-20, and either 80 pmol enzyme equivalent of enzyme:DNA complex in a total volume of 100 μL for adherent cells or 10 pmol enzyme equivalent of enzyme:DNA complex in a total volume of 50 μL for suspension cells) for 30 minutes at 37° C. in a humidified chamber. Subsequently, cells were washed with 50 mM EDTA and 0.01% SDS in 1×PBS three times for 15 minute each at 55° C., lysed for 10 minutes with 0.5% Triton X-100 in 1×PBS at room temperature, and blocked with 1% BSA and 10% goat serum in PBS-T for 1 hour in a humidified chamber. Primary antibody was added to slides in 1% BSA/PBS-T and incubated at 4° C. overnight; slides were then washed and subjected to secondary antibody staining for 1 hour. Slides were washed with PBS-T three times for 15 minutes each, stained with DAPI (Sigma, 1 μg/mL) for 1 minute, washed with PBS for 10 minutes, and mounted with Fluorescence Mounting Medium (Dako). Confocal microscopy images were taken with an LSM 880 Axio Imager 2 at 63× magnification (Zeiss). Images were processed with Fiji/ImageJ v2.0.0.
Primary antibodies used were anti-RNA polymerase II CTD repeat YSPTSPS (phospho S2) (rabbit, Abcam ab5095, 1:500), anti-H3K27Ac (rabbit, Abcam ab4729, 1:500), anti-H3K9me3 (rabbit, Abcam ab8898, 1:500), anti-CCDCl2 (rabbit, Atlas Antibodies HPA060530, 1:200), anti-SNRPA (mouse, 3F9-1F7, Sigma-Aldrich WH0006626M1, 1:100). […]
Quantitative image analyses were performed with CellProfiler v3.1.5. […] Pearson correlation coefficients were determined by comparing ATAC-see pixel intensities with corresponding immunofluorescence intensity values within each ROI to assess the nucleus-to-nucleus variation in colocalization. […]

K562 nuclei = test: iDAPT protein labeling, western blot of labeled nuclear lysates; type: biochemical, human
Experimental: as §1, §2

GM12878 nuclei = test: Peroxidase-mediated biotin labeling after transposition, western blot; type: biochemical, human
Experimental: Western blot. Whole cell lysate was generated by resuspending cells washed with 1×PBS in RIPA (Boston BioProducts) supplemented with 1× complete EDTA-free protease inhibitor cocktail (Roche). Cells were subject to sonication via a Sonic Dismembrator 100 (Fisher Scientific) at setting 2, with 3 pulses of 15 seconds on/off on ice. Lysates were clarified by centrifugation (15,000×g, 30 minutes, 4° C.) and their concentrations quantified with detergent-compatible Bradford assay (Thermo Fisher Scientific). All Western blots were run on NuPAGE 4-12% Bis-Tris protein gels (Thermo Fisher Scientific) and transferred to […] nitrocellulose membranes (GE Healthcare). Membranes were stained with Ponceau S, blocked with 3% milk in PBS-T, and incubated overnight with primary antibody and subsequently with secondary antibody after brief washing with PBS-T. Chemiluminescence was determined by applying ECL Western Blotting detection reagent (GE Healthcare) to membranes and imaging on an Amersham Imager 600 (GE Healthcare). Membranes were stripped with Restore PLUS Stripping Buffer (Thermo Fisher Scientific); streptavidin-HRP was inactivated with 15% hydrogen peroxide. […]

Molecule | peroxidase-dependent biotin signal (HEK293T nuclei) | ATAC-see correlation with H3K9me3 immunofluorescence (HT1080 cells; marker of transcriptionally inactive chromatin) | ATAC-see correlation with H3K27Ac and RNAPII S2P immunofluorescence signal (HT1080 cells; markers of transcriptionally active chromatin) | biotin labeling (K562 nuclei) | biotinylation signal (streptavidin) (GM12878 nuclei)
B1 | low signal | similarly poor correlations | similarly positive correlations | – | –
B2 | – | – | – | highest levels of labeling | highest signals
